Laboratory results: patent US20030144205A1

Target: SV40 large T antigen (pGADT7-SV40 large T antigen) (SV40) (UniProt P03070)
Test: cell-based or functional assay

Chain of SV40 large T antigen (pGADT7-SV40 large T antigen) (SV40) (P03070 86-708 limits assumed): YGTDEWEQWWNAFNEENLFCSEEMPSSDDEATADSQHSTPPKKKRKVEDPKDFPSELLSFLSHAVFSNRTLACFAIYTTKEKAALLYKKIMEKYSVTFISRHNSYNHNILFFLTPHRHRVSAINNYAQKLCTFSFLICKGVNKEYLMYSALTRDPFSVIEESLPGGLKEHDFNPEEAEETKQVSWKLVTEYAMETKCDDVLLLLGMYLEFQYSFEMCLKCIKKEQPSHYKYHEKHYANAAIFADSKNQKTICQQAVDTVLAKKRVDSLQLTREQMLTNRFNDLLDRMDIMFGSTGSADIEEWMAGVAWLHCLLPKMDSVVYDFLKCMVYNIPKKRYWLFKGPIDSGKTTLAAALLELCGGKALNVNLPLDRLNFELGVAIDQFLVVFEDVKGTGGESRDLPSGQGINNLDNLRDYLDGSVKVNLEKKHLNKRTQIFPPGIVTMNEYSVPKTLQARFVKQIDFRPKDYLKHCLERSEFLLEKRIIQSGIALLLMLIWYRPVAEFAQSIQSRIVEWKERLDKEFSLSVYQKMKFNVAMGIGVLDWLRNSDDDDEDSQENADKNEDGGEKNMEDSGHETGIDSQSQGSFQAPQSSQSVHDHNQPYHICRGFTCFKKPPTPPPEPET

**Q.** “murine p53 (pGBKT7-murine p53) (from UniProt P02340 72-390)” was tested. Which fold increase in fluorescence, an indication of yeast growth in selection media (Fluorescence(t40)/Fluorescence(t0)) did it give?
**A.** > 5 fold
